Paper PMC4705684, “DNA binding fluorescent proteins for the direct visualization of large DNA molecules”

Legend:
[1] = system: FP(eGFP)-DBP (synthetic construct; expressed in E. coli BL21 (DE3)); experiment: EMSA; conditions: EMSA: 1x TE (10 mM Tris, 1 mM EDTA, pH 8.0) with 50% (v/v) glycerol, 10 ul, DNA stock ~31.4 nM, protein stocks 74 nM-148 uM, 0.5x TBE 4-20% PAGE, temperature …
DBP peptide KWKWKKA = target: T1, DBP peptide KWKWKKA (synthetic construct); experiment: UV absorbance quenching at 260 nm; stoichiometry 3 bp per DBP; EMSA: 1x TE (10 mM Tris, 1 mM EDTA, pH 8.0) with 50% (v/v) glycerol, 10 ul, DNA stock ~31.4 nM, protein stocks 74 nM-148 uM, 0.5x TBE 4-20% PAGE, temperature not stated; spectra in 1x TE; imaging in TE pH 8.0; conditions: label: none (EtBr post-stain in EMSA); blunt
T1 chain: KWKWKKA

CTACTAGCACAATCGACTGTACGGACCGATCGAGTCACTAGCAGTCTAGCAA (double strand) [52-mer random dsDNA]
Kd [1]: 14.7 µM

B1: 52-mer random dsDNA (dsDNA)
DNA 1: CTACTAGCACAATCGACTGTACGGACCGATCGAGTCACTAGCAGTCTAGCAA
DNA 2: TTGCTAGACTGCTAGTGACTCGATCGGTCCGTACAGTCGATTGTGCTAGTAG
binding result (DBP peptide KWKWKKA): binds
